Among the data in article PMC3013631 are fold change of co-precipitated ROP18 against active ROP18 values, retold here.

The target of this experiment is Irgb6 (mouse (endogenous in macrophages)) (UniProt Q62293). The experiment in a line: co-IP.
UniProt Q62293, sequence (Q62293 whole entry): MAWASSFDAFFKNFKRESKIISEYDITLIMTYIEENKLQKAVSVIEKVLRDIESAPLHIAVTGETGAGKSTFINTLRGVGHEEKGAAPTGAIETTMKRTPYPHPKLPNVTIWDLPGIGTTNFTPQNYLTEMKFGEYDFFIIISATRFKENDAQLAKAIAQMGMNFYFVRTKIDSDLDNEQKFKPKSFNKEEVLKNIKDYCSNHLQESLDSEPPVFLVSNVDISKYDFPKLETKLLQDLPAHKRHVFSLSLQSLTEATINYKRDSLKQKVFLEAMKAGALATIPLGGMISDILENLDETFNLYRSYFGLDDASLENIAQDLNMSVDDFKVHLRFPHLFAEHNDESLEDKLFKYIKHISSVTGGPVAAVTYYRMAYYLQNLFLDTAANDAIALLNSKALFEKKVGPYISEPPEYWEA

Substance “kinase-dead ROP18 D/A (Ty-tagged; expressed in transgenic type III parasites) (from UniProt Q2PAY2 1-554) (enzyme)” displayed a fold change of co-precipitated ROP18 against active ROP18 of 3 fold.
